Measured values from patent US7074888B1, “Mimotopes and anti-mimotopes of human platelet glycoprotein Ib/IX” (The Research Foundation of State University of New York, priority 1995, dated 2006).
Ends that are not written are not given here.

T1: synthetic biotinylated peptide mimotope having SEQ ID NO:1 (not fully specified (N-terminus))
T1 construct: chemically synthesized (Genosys); also called biotinylated mimotope peptide
T1 peptide: AWNWRYREYV


Assays:
[1] = tested on: formalin-fixed platelets; format: cell-based, human; conditions: for inhibition of ristocetin-induced aggregation (extent, in words): 1 U/mL purified vWF, 0.9 mg/mL ristocetin
Procedure: (§1) Citrated human platelet-rich plasma (PRP) was prepared by standard methods (Miller et al. 1983). For study of C-34 neutralization by mimotope peptide, 350 μL of PRP containing 150,000 platelets/μL was incubated for 10 min at 22° C. with phosphate-buffered saline (PBS), 20 μg/mL C-34 mab, or 20 μg/mL C-34 that had previously been incubated for 30 min at 22° C. with varying concentrations of peptides. The PRP was then brought to 37° C. and stirred at 1200 rpm in a Chrono-Log lumi-aggregometer (Chrono-Log Corporation, Havertown, Pa.). Aggregation was initiated by the addition of 1 mg/mL ristocetin (Helena Laboratories, Beaumont, Tex.). For screening of bacteriophage clones displaying potential anti-mimotope peptides, 150 μl of PEG/NaCl precipitated phage was incubated with 250 μl of citrated PRP for one hour at 22° C., transferred to the aggregometer, following which ristocetin was added at a final concentration of 0.8 mg/ml.
Further studies were undertaken with chemically synthesized peptide having SEQ ID NO:94: […]. This decapeptide was able to inhibit ristocetin-induced aggregation fully, with an IC50 occurring between 200–400 μg/mL (FIG. 9). […] In order to approximate more closely the native structure, peptides with an (Arg→Lys) substitution at position 7 were then studied. […] Whereas the […] Finally, both the wild-type GPIb alpha 228–237 peptide (SEQ ID NO:108) containing Gly at residue 233 and the PT-vWD variant with Val replacing Gly at this position (SEQ ID NO:107) were synthesized. […] Lyophilized peptides were reconstituted in PBS, pH 6.0 and 150 μL of varying dilutions incubated for 2–4 hr at 22° C. with 250 μL of formalin-fixed platelets ([…]), prior to aggregometry in which the addition of 1 U/mL purified vWF was followed by the addition of 0.9 mg/mL ristocetin.

[2] = tested on: mab C-34; experiment: Neutralization of mab C-34 inhibition of ristocetin-induced aggregation in citrated platelet-rich plasma by mimotope peptide; format: cell-based, human
Procedure: as §1
A peptide including the consensus sequence (SEQ ID NO: 38) was chemically synthesized (Genosys Biotechnologies, The Woodlands, Tex.). […] A modification of this peptide with a biotin attached to the amino-terminal alanine (N-hydroxysuccinimide hexanoic acid long chain spacer arm biotinylation) was also synthesized. One mg of the chemically synthesized biotinylated peptide was dissolved in one ml of water containing 20 μl of DMSO. […] Accordingly, approximately 10 μg of C-34 was incubated at 22° C. for 30 minutes with varying concentrations of test or control peptide, following which the mixture was added to PRP in a final volume of approximately 0.5 ml for an additional 10 minutes at 22° C. […] A similar pattern of C-34 antibody neutralization was observed when the non-biotinylated form of the peptide (having SEQ ID NO:38) was used, with half-maximal neutralization at approximately 3.0 μM.

[3] = tested on: platelets; experiment: Effect of mimotope peptide by itself on platelet aggregation and on ADP-induced aggregation; format: cell-based, human
[4] = molecular target: monoclonal antibody C-34; experiment: clone count after phage biopanning on biotinylated C-34
[5] = molecular target: T1, synthetic biotinylated peptide mimotope …; experiment: phage biopanning on biotinylated mimotope peptide SEQ ID NO:1
Procedure: For studies directed towards discovering a peptide binding the mimotope peptide (SEQ ID NO:1: […]), two rounds of biopanning against the original decapeptide library were performed, using 1 µg of biotinylated mimotope peptide in the first round and 0.01 µg in the second round. Resulting yields were 3 ×10^-6% and 2 ×10^-3%, respectively.

Row | Molecule | Frequency [4] | binding result [5] | further results
1 | RHVAWWKQGV [SEQ ID NO:106] |  |  | inhibition of ristocetin-induced aggregation (extent, in words) ([1]; formalin-fixed platelets): unable to exert more than slight inhibition, except at the highest concentrations tested
2 | RHVAWWKQVV [SEQ ID NO:105] |  |  | inhibition of ristocetin-induced aggregation (extent, in words) ([1]; formalin-fixed platelets): retained potent inhibitory activity
3 | SEQ ID NO:108: wild-type GPIb alpha 228–237 peptide containing Gly at residue 233 (YVWKQGVDVK) |  |  | inhibition of ristocetin-induced aggregation (extent, in words) ([1]; formalin-fixed platelets): virtually without inhibitory activity
4 | WNWRYREYV [SEQ ID NO:38] |  |  | EC50 ([2]; 20 μg/mL C-34, citrated PRP, 1 mg/mL ristocetin, read-out: half-maximal neutralization of the C-34): ~3000 nM
5 | AWNWRYREYV [SEQ ID NO:1] |  |  | neutralization of C-34 inhibition of ristocetin-induced aggregation ([2]; 0.14 μM peptide, 20 μg/ml mab C-34 (FIG. 3)): continued inhibition; neutralization of C-34 inhibition of ristocetin-induced aggregation ([2]; 0.27 μM peptide, 20 μg/ml mab C-34 (FIG. 4)): partial neutralization; neutralization of C-34 inhibition of ristocetin-induced aggregation ([2]; 0.55 μM peptide, 20 μg/ml mab C-34 (FIG. 5)): partial neutralization; neutralization of C-34 inhibition of ristocetin-induced aggregation ([2]; 1.1 μM peptide, 20 μg/ml mab C-34 (FIG. 6)): partial neutralization; neutralization of C-34 inhibition of ristocetin-induced aggregation ([2]; 2.3 μM peptide, 20 μg/ml mab C-34 (FIG. 7)): complete neutralization; influence on ADP-induced aggregation ([3]; non-specific effects): no influence; induction of platelet aggregation by the peptide by itself ([3]; peptide alone, PRP): did not induce platelet aggregation
6 | YVWKQVVDVK [SEQ ID NO:107] |  |  | IC50 for inhibition of ristocetin-induced aggregation [1]: approximately 400 μg/mL; inhibition of ristocetin-induced aggregation (extent, in words) ([1]; formalin-fixed platelets): fully inhibiting
7 | SEQ ID NO:104: RHVAWWRQGV decapeptide with a (Gly→Val) substitution at position 9, corresponding to the mutation observed in PT-vWD (RHVAWWRQVV) |  |  | inhibition of ristocetin-induced aggregation ([1]; by 715 μg/mL peptide, formalin-fixed platelets): nearly full inhibition
8 | MHGHRRPGLA [C34 Clone SEQ ID NO:18] | 1 |  | 
9 | RHVAWWRQGV [anti-mimotope clone SEQ ID NO:94] |  | binds | 
10 | AWNWRYREYV [C34 Clone SEQ ID NO:1] | 52 |  | 
11 | SVRHIWFHVK [anti-mimotope clone SEQ ID NO:168] |  | binds | 
12 | LLLVGGSELT [anti-mimotope clone SEQ ID NO:164] |  | binds | 
13 | KKWGQHRQRS [anti-mimotope clone SEQ ID NO:158] |  | binds | 
14 | HEGCEAQDEL [anti-mimotope clone SEQ ID NO:167] |  | binds | 
15 | PDRQVRLWVR [C34 Clone SEQ ID NO:12] | 1 |  | 
16 | WVRGHHREVR [anti-mimotope clone SEQ ID NO:172] |  | binds | 
17 | WRWMHWMPHA [anti-mimotope clone SEQ ID NO:159] |  | binds | 
18 | RGWRWHKYWQ [anti-mimotope clone SEQ ID NO:162] |  | binds | 
19 | KKGRHHVTRV [C34 Clone SEQ ID NO:15] | 22 |  | 
20 | EGSWRYRKGG [C34 Clone SEQ ID NO:7] | 1 |  | 
21 | LSTWRYFEYV [C34 Clone SEQ ID NO:3] | 14 |  | 
22 | KGFLWRARNW [C34 Clone SEQ ID NO:9] | 1 |  | 
23 | WRQREYWDPV [C34 Clone SEQ ID NO:6] | 1 |  | 
24 | KRHAWMKSRL [anti-mimotope clone SEQ ID NO:163] |  | binds | 
25 | RWLWPRVHKT [anti-mimotope clone SEQ ID NO:170] |  | binds | 

Row | Molecule | Frequency [4] | binding result [5] | further results
26 | VAKWRHWNRQ [anti-mimotope clone SEQ ID NO:99] |  | binds | 
27 | WHWLARHRTV [anti-mimotope clone SEQ ID NO:160] |  | binds | 
28 | HSPFRHVQPR [anti-mimotope clone SEQ ID NO:171] |  | binds | 
29 | KRAWWKQKWV [C34 Clone SEQ ID NO:66] | 1 |  | 
30 | TQMWRAREYL [C34 Clone SEQ ID NO:5] | 2 |  | 
31 | AGLNHWWKHK [anti-mimotope clone SEQ ID NO:97] |  | binds | 
32 | RHRHRGFQPR [anti-mimotope clone SEQ ID NO:161] |  | binds | 
33 | KKVWMFSYNE [anti-mimotope clone SEQ ID NO:165] |  | binds | 
34 | FSHSYGSAIR [C34 Clone SEQ ID NO:17] | 1 |  | 
35 | AKHRWWRRPV [anti-mimotope clone SEQ ID NO:95] |  | binds | 
36 | MNWKHWRARH [C34 Clone SEQ ID NO:10] | 1 |  | 
37 | GTWDLWRKGS [anti-mimotope clone SEQ ID NO:169] |  | binds | 
38 | MSKKPHLGLR [C34 Clone SEQ ID NO:19] | 1 |  | 
39 | KWNWRNKKYV [C34 Clone SEQ ID NO:2] | 1 |  | 
40 | GRRVWMLNHG [C34 Clone SEQ ID NO:14] | 2 |  | 
41 | RRSTWHWWHA [anti-mimotope clone SEQ ID NO:98] |  | binds | 
42 | GGVCKCWQCL [C34 Clone SEQ ID NO:16] | 1 |  | 
43 | YLGWRYSEYV [C34 Clone SEQ ID NO:4] | 7 |  | 
44 | TMWVELYSLK [C34 Clone SEQ ID NO:20] | 1 |  | 
45 | RVLRHWHPRT [C34 Clone SEQ ID NO:13] | 1 |  | 
46 | LSCRGCRAFV [anti-mimotope clone SEQ ID NO:166] |  | binds | 
47 | FVDPGRAGRG [C34 Clone SEQ ID NO:21] | 1 |  | 
48 | KHFMRHRHGV [anti-mimotope clone SEQ ID NO:96] |  | binds | 
49 | FKWREWRGKL [C34 Clone SEQ ID NO:11] | 1 |  | 
50 | GYHWWRNWEY [C34 Clone SEQ ID NO:8] | 2 |  | 
